Data taken from PMC4980159 (Biochemistry, 2016).
Where two headings read alike, the source gives them in different places.

Key:
[1] = target: CEACAM5 N-terminal domain (Homo sapiens) (UniProt P06731); details: cited from earlier work
Target sequence in this assay (P06731 35-144): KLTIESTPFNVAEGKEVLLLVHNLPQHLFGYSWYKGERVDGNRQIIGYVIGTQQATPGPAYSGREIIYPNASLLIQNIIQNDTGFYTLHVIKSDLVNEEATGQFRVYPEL

[2] = target: Fibronectin (Homo sapiens) (UniProt P02751); details: cited from earlier work
[3] = target: CEACAM5 N-terminal domain (Homo sapiens) (UniProt P06731); details: cited from earlier work; remark: listed apart in the source
[4] = target: Fluorescently labeled NCCM1 H139C (human) (UniProt P13688); test: fluorescence polarisation
[5] = target: Fluorescently labeled NCCM3 H139C (human) (UniProt P40198); test: fluorescence polarisation
[6] = target: Recombinant OpaD reconstituted into liposomes (N. gonorrhoeae strain FA1090, UniProt Q04883 2-243); test: fluorescence polarisation

Sequence of Fibronectin (Homo sapiens) (P02751 32-2477): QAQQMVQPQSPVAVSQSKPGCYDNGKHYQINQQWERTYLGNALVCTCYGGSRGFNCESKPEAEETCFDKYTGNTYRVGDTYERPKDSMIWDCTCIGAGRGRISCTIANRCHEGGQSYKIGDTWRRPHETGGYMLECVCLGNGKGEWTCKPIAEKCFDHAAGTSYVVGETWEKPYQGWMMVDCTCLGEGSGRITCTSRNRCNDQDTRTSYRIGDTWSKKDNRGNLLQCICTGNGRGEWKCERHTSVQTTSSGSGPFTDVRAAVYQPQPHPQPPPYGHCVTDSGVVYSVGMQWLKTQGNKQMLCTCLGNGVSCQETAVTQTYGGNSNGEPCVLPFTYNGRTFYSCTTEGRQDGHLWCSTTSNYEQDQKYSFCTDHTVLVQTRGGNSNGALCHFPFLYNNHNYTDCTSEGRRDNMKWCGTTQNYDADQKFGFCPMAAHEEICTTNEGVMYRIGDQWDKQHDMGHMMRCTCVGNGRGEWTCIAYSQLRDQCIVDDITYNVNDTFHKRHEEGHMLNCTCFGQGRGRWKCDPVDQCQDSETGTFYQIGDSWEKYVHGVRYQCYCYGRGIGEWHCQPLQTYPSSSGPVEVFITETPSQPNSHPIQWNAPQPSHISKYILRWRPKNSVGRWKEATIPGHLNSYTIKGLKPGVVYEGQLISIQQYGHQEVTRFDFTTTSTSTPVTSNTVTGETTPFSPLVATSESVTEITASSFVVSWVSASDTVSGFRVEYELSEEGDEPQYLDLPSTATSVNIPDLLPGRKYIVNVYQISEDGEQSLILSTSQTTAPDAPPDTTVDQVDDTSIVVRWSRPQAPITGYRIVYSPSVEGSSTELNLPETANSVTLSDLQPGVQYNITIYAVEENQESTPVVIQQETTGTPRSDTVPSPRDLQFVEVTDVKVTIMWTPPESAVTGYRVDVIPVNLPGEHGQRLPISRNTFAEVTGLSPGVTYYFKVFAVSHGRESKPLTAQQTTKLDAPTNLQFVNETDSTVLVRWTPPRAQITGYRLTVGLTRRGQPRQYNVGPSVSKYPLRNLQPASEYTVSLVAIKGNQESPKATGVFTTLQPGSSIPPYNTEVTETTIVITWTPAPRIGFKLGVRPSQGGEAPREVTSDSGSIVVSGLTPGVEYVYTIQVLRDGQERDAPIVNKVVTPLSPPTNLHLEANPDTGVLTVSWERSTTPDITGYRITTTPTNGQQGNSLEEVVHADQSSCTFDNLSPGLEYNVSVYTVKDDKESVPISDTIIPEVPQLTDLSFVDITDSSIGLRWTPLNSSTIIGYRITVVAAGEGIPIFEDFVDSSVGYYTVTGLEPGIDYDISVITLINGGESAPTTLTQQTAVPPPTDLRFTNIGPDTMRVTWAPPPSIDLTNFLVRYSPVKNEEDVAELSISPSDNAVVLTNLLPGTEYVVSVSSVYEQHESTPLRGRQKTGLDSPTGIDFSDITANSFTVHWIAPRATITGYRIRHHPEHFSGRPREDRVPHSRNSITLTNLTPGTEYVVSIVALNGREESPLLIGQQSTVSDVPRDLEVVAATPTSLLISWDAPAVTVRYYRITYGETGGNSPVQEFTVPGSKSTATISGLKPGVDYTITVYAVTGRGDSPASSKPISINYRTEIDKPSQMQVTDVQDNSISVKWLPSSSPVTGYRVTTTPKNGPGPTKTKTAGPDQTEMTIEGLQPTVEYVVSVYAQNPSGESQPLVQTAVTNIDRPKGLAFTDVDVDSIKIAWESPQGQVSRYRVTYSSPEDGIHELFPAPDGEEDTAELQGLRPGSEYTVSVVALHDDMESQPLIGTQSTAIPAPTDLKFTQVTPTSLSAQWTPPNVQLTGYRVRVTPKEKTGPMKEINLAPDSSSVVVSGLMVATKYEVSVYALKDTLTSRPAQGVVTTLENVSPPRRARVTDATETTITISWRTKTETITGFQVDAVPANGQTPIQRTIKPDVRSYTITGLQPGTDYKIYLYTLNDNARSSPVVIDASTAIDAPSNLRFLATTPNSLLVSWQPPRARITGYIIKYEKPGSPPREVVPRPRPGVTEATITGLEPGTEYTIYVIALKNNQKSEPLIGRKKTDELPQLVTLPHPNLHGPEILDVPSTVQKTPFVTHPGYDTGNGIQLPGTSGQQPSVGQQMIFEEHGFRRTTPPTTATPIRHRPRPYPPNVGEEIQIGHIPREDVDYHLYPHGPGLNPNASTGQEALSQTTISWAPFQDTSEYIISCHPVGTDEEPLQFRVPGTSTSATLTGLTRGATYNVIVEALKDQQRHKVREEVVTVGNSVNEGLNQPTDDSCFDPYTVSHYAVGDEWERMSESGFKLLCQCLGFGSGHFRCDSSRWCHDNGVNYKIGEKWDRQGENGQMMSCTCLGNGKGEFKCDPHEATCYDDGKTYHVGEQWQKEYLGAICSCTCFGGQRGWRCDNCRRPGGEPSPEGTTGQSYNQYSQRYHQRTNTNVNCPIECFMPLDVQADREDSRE

CEACAM5 A3 domain (from UniProt P06731)
Kd [1]: 18 nM

CEACAM5 N-terminal domain (from UniProt P06731)
Kd [2]: 16 nM | Kd [3]: 100 nM

Recombinant Opa60 reconstituted into liposomes (natural protein)
Kd [4]: 1.6 nM | Kd [5]: 4.3 nM

B1: Fluorescently labeled NCCM1 H139C (domain or fragment, human, UniProt P13688-1 35-141, looked up)
chain: QLTTESMPFNVAEGKEVLLLVHNLPQQLFGYSWYKGERVDGNRQIVGYAIGTQQATPGPANSGRETIYPNASLLIQNVTQNDTGFYTLQVIKSDLVNEEATGQFCVY
modifications: AMS (4-acetamido-4'-maleimidylstilbene-2,2'-disulfonic acid) on the introduced cysteine (H139C)
Kd [6]: 2.6 ± 1.3 nM

B2: Fluorescently labeled NCCM3 H139C (domain or fragment, human)
chain: PGSGAKLTIESMPLSVAEGKEVLLLVHNLPQHLFGYSWYKGERVDGNSLIVGYVIGTQQATPGAAYSGRETIYTNASLLIQNVTQNDIGFYTLQVIKSDLVNEEATGQFCVYQ
modifications: AMS (4-acetamido-4'-maleimidylstilbene-2,2'-disulfonic acid) on the introduced cysteine (H139C)
Kd [6]: 6.8 ± 2.2 nM
